Assay results taken from patent US7700329B2, “Methods for making simvastatin and intermediates” (priority 2003, dated 2010).
≈ marks a conversion by molar mass, not a printed value.

Experiments:
[1] = pH 8
physchem = settings: pH 9.5
[2] = Enzyme screen for hydrolysis of simvastatin; type: biochemical; settings: 2.5 mM substrate, 100 mM phosphate buffer/co-solvent pH 7 to 8, 30° C., 48 h; confirmed at 1 mM
Experimental: (§1) Any method for screening for enzymes for use in the methods of the invention, e.g., enzymes for the hydrolysis of lovastatin, lovastatin acid, 4-acetyl simvastatin or simvastatin, can be used, and, these methods are well known in the art. For example, in one exemplary set of screen conditions used to determine an enzyme(s) to be used in a method of the invention comprises use of 2.5 mM substrate, 100 mM phosphate buffer/co-solvent pH 7 to pH 8, 30° C., 48 h, with the following composition: (i) lovastatin or simvastatin in MTBE/buffer, (ii) lovastatin or simvastatin in toluene/buffer, (iii) lovastatin acid or simvastatin acid in 10% methanol/buffer. Screen results were confirmed at 1 mM substrate. […] SEQ ID NO:4 and SEQ ID NO:2 were further evaluated at 25, 50 and 100 mM lovastatin acid in 10% MeOH/buffer, pH 9, the more soluble lovastatin acid being used as substrate for convenience.

[3] = Large-scale hydrolysis of lovastatin, specific activity of esterase; type: biochemical; settings: 100 g scale, 0.5 M lovastatin
Experimental: The in situ hydrolysis of lovastatin with SEQ ID NO:4 was optimized such that insignificant amounts of NaCl generated: 0.85 g lovastatin in MeOH and equimolar NaOH added. Clarified lysate of E. coli containing SEQ ID NO:4 was added to lovastatin acid. […] See FIG. 27 for an illustration summary of the results.
The results of Response Surface Analysis (RSA) can be applied to large-scale hydrolysis of lovastatin, e.g., using a protocol as illustrated in FIG. 28: • Reaction performed successfully on 100 g scale (0.5 M); • 97.5% conversion in 27 h; • Productivity: x g/g esterase/h; • Specific activity: 0.084 μmol/mg esterase/min.

[4] = Enzyme screen for hydrolysis of lovastatin or lovastatin acid; type: biochemical; settings: 2.5 mM substrate, 100 mM phosphate buffer/co-solvent pH 7 to 8, 30° C., 48 h; confirmed at 1 mM
Experimental: as §1

[5] = Heat pre-treatment of lovastatin esterase, then lovastatin hydrolysis; type: biochemical; settings: 60° C. for 30 min, centrifuged, supernatant used
Source text: Heat treatment has often been used as a convenient method to purify crude enzyme preparations when there is differential thermal stability between the desired enzyme and other contaminating proteins.

[6] = Comparison of genomic clones for hydrolysis of lovastatin acid under standard conditions; type: biochemical; settings: same total protein concentration or same activity normalized against MUB
Source text: Genomic clones comprising sequences encoding enzymes having sequences as set forth in SEQ ID NO:4, SEQ ID NO:2, SEQ ID NO:6 (e.g., encoded by exemplary SEQ ID NO:3, SEQ ID NO:1, and SEQ ID NO:5, respectively), were compared for the hydrolysis of lovastatin acid under standard conditions (the same total protein concentration, or the same enzyme activity normalized against the fluorescent substrate, methylumbelliferyl butyrate (MUB)).

CCC(C)(C)C(=O)O[C@H]1C[C@@H](C)C=C2C=C[C@H](C)[C@H](CC[C@@H]3C[C@@H](OC(C)=O)CC(=O)O3)[C@H]21 [4-acetyl simvastatin]
elimination [1]: 13%

C[C@H]1C=C2C=C[C@H](C)[C@H](CC[C@@H](O)C[C@@H](O)CC(=O)O)C2[C@@H](O)C1 (stereo partly drawn) [Triol acid]
solubility (physchem): ~200 mM (≈ 67.7 mg/mL)

B1: SEQ ID NO:4: novel lovastatin esterase, family VII esterase with SXXK motif, encoded by SEQ ID NO:3 (protein)
chain: MEIHGTCDPKFHLVRQEFERNLRERGEVGASVCVTLHGETVVDLWGGMARADTQTPWTAETVSIVFSSTKGATALCAHMLASRGQLDLDAPVATYWPEFAQAGKARIPVKMLLNHQAGLPAVRTPLPQGAYADWELMVNTLAKEEPFWEPGTRNGYHALTMGWLVGEVVRRVSGKSLGTFFQEEIARPLGLDFWIGLPAEQEARVAPMIAAEPDPQSLFFQEVAKPGALQSLVLLNSGGYMGAQPEYDSRAAHAAEIGAAGGITNARGLAGMYAPLACGGKLKGVELVSPDMLARMSRVASATGRDAVLMMPTRFALGFMKSMDNRREPAGVQDSALFGEEAFGHVGAGGSFGFADPKAGMSFGYTMNRMGLGAGLNPRGQSLVDATYRSLGYQSDASGAWT
modifications: Unkown; Soil sample
activity for the hydrolysis of simvastatin [2]: showed activity | Specific activity [3]: 0.084 μmol/mg esterase/min | activity for the hydrolysis of lovastatin or lovastatin acid [4]: active | activity of heat pre-treated versus untreated enzyme [5]: no difference in activity | activity for hydrolysis of lovastatin acid compared among genomic clones [6]: best activity

B2: SEQ ID NO:6: feruloyl esterase encoded by SEQ ID NO:5 (protein)
chain: MRSAARISVAAVAFLCLLLTTRVSAQIVPAMECADLANQQLPNTTITSAQTVTTGSLTPPGSTNPITDLPPFCRVTGAIAPTSESHILFEVWLPLDKWNGKFAGVGNGGWAGIISFGALGSQLKRGYATASTNTGHEAAPGMNAARFAFEKPEQLIDFAYRSQHETALKAKALVQAFYGKPPEHSYFIGCSSGGYQGLMEAQRFPADYDGIVAGMPANNWTRLMAGDLDAILAVSVDPASHLPVSALGLLYRSVLAACDGIDGVVDGVLEDPRRCRFDPAVLMCKADQNPDGCLTPAQVEAARRIYGGLKDPKTGAQLYPGLAPGSEPFWPHRNPANPFPIPIAHYKWLVFADPNWDWRTFKFTDPADYQAFLNAEATYAPTLNATNPDLREFSRRGGRLIQYHGWNDQLIAPQNSIDYYESVLSFFGSGKQDRAQTVREVQSFYRLFMAPGMAHCGGGTGPNSFDMLDALEKWVEGGIAPERVLATRSINGVVDRLRPLCPYPQVAVYKGHGDTNDAANFVCRD
modifications: Unkown; Soil sample
activity for the hydrolysis of lovastatin or lovastatin acid [4]: active

B3: SEQ ID NO:2: feruloyl esterase encoded by SEQ ID NO:1 (protein)
chain: MSLCVIRFIAGTLVLVASVESAVAQQACADLMGLELPYTTITSAAVATEGPIPQPAIFGSTDPIVAPERCEVRAVTRPTKDSEIRIELWLPLSGWNGKYLQIGSGGWAGSINRTGLIGPLQRGYAVAATDNGHISEGLVPDASWAIGHPQKLIDFGYRAVHETSVQAKAILRAYFGRGQDLSYFSGCSNGGREALMEAQRYPEDFEGIIAGAPANNWSRLFTGFVWNERALADDPIPPAKLTAIQAAAIAACDTLDGVEDGLIENPRACSFDPRSMVCTADDASDCLTEGQVATLHRIYSGPTNPRTGERIFPGYPMGTEAVPGGWVPWIVSASSEVPSIQASFGNSYYGHAVFEQSNWDFRTLDFDQDVAFGDAKAGPVLNATNPDLRSFRANGGKLIQYHGWGDAAITAFSSIDYYENVRAFLDRFPDPRSENTDIDGFYRLFLVPGMGHCSGGIGPSSFGNGFRSARTDAEHDLLSALEAWVERDTAPERLIGTGTAVGDPTATLTRPLCPYPRTARYLGSGNSNDAANFECALPAGVQ
modifications: Unkown; Soil sample
activity for the hydrolysis of lovastatin or lovastatin acid [4]: active
